Test results as given in US20090318342A1, “Compounds” (IMPERIAL INNOVATIONS LIMITED, priority 2005, published 2009).

T1: ADAMTS-4 (as used in Example 4; form not stated) (Homo sapiens (Human)) (UniProt O75173)
T1 sequence: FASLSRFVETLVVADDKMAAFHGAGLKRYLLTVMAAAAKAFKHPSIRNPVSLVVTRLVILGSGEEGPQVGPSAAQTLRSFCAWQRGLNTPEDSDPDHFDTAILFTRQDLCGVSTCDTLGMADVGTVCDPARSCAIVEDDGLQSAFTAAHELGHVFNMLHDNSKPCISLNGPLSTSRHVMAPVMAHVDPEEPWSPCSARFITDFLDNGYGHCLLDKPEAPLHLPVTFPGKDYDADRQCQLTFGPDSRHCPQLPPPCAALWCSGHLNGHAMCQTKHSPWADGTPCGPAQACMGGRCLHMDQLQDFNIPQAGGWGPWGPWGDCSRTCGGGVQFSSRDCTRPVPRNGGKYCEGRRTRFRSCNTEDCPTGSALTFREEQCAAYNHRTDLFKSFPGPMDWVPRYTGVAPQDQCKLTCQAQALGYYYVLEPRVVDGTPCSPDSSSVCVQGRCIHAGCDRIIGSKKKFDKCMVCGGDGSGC


What was measured:
[1] = molecular target: catalytic domain of stromelysin 1 (MMP-3(ΔC)) (Homo sapiens (Human)) (UniProt P08254); assay: enzyme inhibition kinetics, Ki(app), as in Example 1
[2] = molecular target: soluble form of TACE in which the transmembrane and C-terminal cytoplasmic domains are deleted (TACE R651) (human) (UniProt P78536)
[3] = molecular target: soluble form of TACE in which the transmembrane and C-terminal cytoplasmic domains are deleted (TACE R651) (human) (UniProt P78536); assay: TACE inhibition kinetics, Ki(app), pH 9.0, fit with equation 3 (cooperative)
[4] = molecular target: T1, ADAMTS-4 (as used in Example 4; form not stated) (Homo sapiens (Human)); assay: GST-IGD-FLAG substrate assay, Ki(app)
[5] = molecular target: ADAMTS-5 (Homo sapiens (Human)) (UniProt Q9UNA0); assay: GST-IGD-FLAG substrate assay, Ki(app)
[6] = molecular target: full-length collagenase 1 (MMP-1) (Homo sapiens (Human)) (UniProt P03956); assay: MMP-1 inhibition under the conditions used for TACE activity measurements
[7] = molecular target: soluble form of TACE in which the transmembrane and C-terminal cytoplasmic domains are deleted (TACE R651) (human) (UniProt P78536); assay: TACE inhibition kinetics at pH 7.5
[8] = molecular target: TACE/ADAM17 on human monocytic cells (THP-1 cells; monocyte-derived macrophages) (human) (UniProt P78536)
[9] = molecular target: full-length collagenase 1 (MMP-1) (Homo sapiens (Human)) (UniProt P03956); assay: enzyme inhibition kinetics, Ki(app), as in Example 1
[10] = molecular target: gelatinase A (MMP-2) (Homo sapiens (Human)) (UniProt P08253); assay: as above
Sequence of gelatinase A (MMP-2) (Homo sapiens (Human)) (P08253 110-660 limits assumed): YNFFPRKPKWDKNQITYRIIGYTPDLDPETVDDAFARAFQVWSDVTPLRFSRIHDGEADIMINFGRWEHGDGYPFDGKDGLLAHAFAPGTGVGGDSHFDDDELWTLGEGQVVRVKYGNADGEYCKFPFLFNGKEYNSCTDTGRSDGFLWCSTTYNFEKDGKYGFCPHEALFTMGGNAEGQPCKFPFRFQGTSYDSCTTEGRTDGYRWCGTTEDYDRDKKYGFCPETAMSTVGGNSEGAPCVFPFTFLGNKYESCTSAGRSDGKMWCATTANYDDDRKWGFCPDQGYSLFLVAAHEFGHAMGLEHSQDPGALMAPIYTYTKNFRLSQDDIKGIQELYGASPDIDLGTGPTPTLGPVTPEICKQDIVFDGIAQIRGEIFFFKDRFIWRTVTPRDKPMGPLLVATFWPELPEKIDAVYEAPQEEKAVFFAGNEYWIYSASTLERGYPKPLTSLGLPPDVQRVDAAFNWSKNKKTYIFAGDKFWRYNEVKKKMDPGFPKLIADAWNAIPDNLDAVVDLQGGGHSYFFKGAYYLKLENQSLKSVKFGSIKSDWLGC

Sequence of full-length collagenase 1 (MMP-1) (Homo sapiens (Human)) (P03956 100-469 limits assumed): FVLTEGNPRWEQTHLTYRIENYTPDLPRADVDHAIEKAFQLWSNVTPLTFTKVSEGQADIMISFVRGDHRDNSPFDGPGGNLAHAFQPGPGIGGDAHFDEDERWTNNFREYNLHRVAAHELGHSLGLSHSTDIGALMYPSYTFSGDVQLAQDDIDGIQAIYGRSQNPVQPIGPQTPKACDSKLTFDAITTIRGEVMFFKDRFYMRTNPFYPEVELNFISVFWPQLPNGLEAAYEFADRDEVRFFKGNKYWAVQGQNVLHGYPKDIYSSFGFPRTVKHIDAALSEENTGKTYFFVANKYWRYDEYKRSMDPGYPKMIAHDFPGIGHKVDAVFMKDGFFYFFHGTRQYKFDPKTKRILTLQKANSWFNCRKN

Row | Ki [1] | inhibition of TACE activity (% inhibition at 100 nM) [2] | Ki [3] | Ki [4] | Ki [5] | Ki [6] | Ki [7] | LPS stimulated TNFα release by monocyte-derived macrophages (ELISA) [8] | Ki [9] | Ki [10] | Binder
1 | > 250 nM | 80 to 90 | – | – | – | – | – | – | – | – | (-2A)N-TIMP-3 (protein) AACTCSPSHPQDAFCNSDIVIRAKVVGKKLVKEGPFGTLVYTIKQMKMYRGFTKMPHVQYIHTEASESLCGLKLEVNKYQYLLTGRVYDGKMYTGLCNFVERWDQLTLSQRKGLNYRYHLGCN
2 | 1.8 nM | – | 13.7 nM | 2.4 nM | 0.4 nM | 1.6 nM | 26 nM | 180 nM | 8.2 nM | 5.1 nM | wild-type N-TIMP-3 (N-terminal inhibitory domain of tissue inhibitor of metalloproteinase-3), C-terminally His-tagged (protein) CTCSPSHPQDAFCNSDIVIRAKVVGKKLVKEGPFGTLVYTIKQMKMYRGFTKMPHVQYIHTEASESLCGLKLEVNKYQYLLTGRVYDGKMYTGLCNFVERWDQLTLSQRKGLNYRYHLGCN
